# Residue numbers refer to the chain shown, from its start. In names and notes the source's numbering stands.
# T1: Human Notch4-NRR domain Fc fusion protein (human, UniProt Q99466 1046-1445, limits assumed)
# T1 construct: Expressed in a CHO cell line, used from culture supernatant; 1 is named; also called Human Notch4-NRR Fusion Protein; not shown: Fc
# T1 sequence: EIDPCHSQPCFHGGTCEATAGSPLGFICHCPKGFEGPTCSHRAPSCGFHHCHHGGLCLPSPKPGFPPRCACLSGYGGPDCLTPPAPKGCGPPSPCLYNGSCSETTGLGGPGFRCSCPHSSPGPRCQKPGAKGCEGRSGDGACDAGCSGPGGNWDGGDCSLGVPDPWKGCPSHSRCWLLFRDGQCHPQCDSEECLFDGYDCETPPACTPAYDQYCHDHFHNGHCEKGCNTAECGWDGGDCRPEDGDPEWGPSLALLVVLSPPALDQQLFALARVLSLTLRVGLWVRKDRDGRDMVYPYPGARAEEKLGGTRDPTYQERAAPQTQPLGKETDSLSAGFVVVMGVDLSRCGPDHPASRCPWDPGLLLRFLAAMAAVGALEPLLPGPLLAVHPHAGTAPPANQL
# B1: HA1L3 (antibody, human IgG2, kappa, V domains shown)
# VH: EVQLVESGGGLVQPGGSLRLSCAASGFTFSSYGMSWVRQAPGKGLEYVSTINSNGGRTYYANSVKGRFTISRDNSKNTLYLQMGSLRAEDMAVYYCARDQGFAYWGQGTLVTVSS
# VL: EIVMTQSPATLSVSPGERATLSCKASQDVGTAVAWYQQKPGQAPRLLIYWASTRHTGIPARFSGSGSGTEFTLTISSLQSEDFAVYYCQQYSSYPWTFGQGTKVEIKR
# notes: Humanized IgG2 (V234A, G237A)/κ; also called No. 23
# B2: HA1L1 (antibody, human IgG2, kappa, V domains shown)
# VH: B1 VH
# VL: DIQMTQSPSSLSASVGDRVTITCKASQDVGTAVAWYQQKPGKVPKLLIYWASTRHTGVPSRFSGSGSGTDFTLTISSLQPEDVATYYCQQYSSYPWTFGQGTKVEIKR
# notes: Humanized IgG2 (V234A, G237A)/κ; also called No. 21
# B3: HA1L4 (antibody, human IgG2, kappa, V domains shown)
# VH: B1 VH
# VL: B1 VL with Y87F
# notes: Humanized IgG2 (V234A, G237A)/κ; also called No. 24
# B4: HA2L6(Lys-) (antibody, human IgG2, kappa, V domains shown)
# VH: B1 VH with Y47L
# VL: B1 VL with A43S, Y87F
# notes: Humanized IgG2 (V234A, G237A)/κ; also called No. 40
# B5: HK3L6(Lys-) (antibody, human IgG2, kappa, V domains shown)
# VH: B1 VH with Y47L, S49A, A61P, N62D, R87K
# VL: B1 VL with A43S, Y87F
# notes: Humanized IgG2 (V234A, G237A)/κ; also called No. 42
# B6: HA2L5(Lys-) (antibody, human IgG2, kappa)
# heavy: EVQLVESGGGLVQPGGSLRLSCAASGFTFSSYGMSWVRQAPGKGLELVSTINSNGGRTYYANSVKGRFTISRDNSKNTLYLQMGSLRAEDMAVYYCARDQGFAYWGQGTLVTVSSASTKGPSVFPLAPCSRSTSESTAALGCLVKDYFPEPVTVSWNSGALTSGVHTFPAVLQSSGLYSLSSVVTVPSSNFGTQTYTCNVDHKPSNTKVDKTVERKCCVECPPCPAPPAAAPSVFLFPPKPKDTLMISRTPEVTCVVVDVSHEDPEVQFNWYVDGVEVHNAKTKPREEQFNSTFRVVSVLTVVHQDWLNGKEYKCKVSNKGLPAPIEKTISKTKGQPREPQVYTLPPSREEMTKNQVSLTCLVKGFYPSDIAVEWESNGQPENNYKTTPPMLDSDGSFFLYSKLTVDKSRWQQGNVFSCSVMHEALHNHYTQKSLSLSPG
# light: DIQMTQSPSSLSASVGDRVTITCKASQDVGTAVAWYQQKPGKSPKLLIYWASTRHTGVPSRFSGSGSGTDFTLTISSLQPEDVATYFCQQYSSYPWTFGQGTKVEIKRTVAAPSVFIFPPSDEQLKSGTASVVCLLNNFYPREAKVQWKVDNALQSGNSQESVTEQDSKDSTYSLSSTLTLSKADYEKHKVYACEVTHQGLSSPVTKSFNRGEC
# notes: Humanized IgG2 (V234A, G237A)/κ; also called No. 33
# B7: HK1L5 (antibody, human IgG2, kappa, V domains shown)
# VH: B1 VH with A61P, N62D
# VL: B2 VL with V43S, Y87F
# notes: Humanized IgG2 (V234A, G237A)/κ; also called No. 10
# B8: HK2L2 (antibody, human IgG2, kappa, V domains shown)
# VH: B1 VH with Y47L, A61P, N62D
# VL: B2 VL with Y87F
# notes: Humanized IgG2 (V234A, G237A)/κ; also called No. 12
# B9: HK3L1 (antibody, human IgG2, kappa, V domains shown)
# VH: B1 VH with Y47L, S49A, A61P, N62D, R87K
# VL: B2 VL
# notes: Humanized IgG2 (V234A, G237A)/κ; also called No. 16
# B10: HK2L1 (antibody, human IgG2, kappa, V domains shown)
# VH: B1 VH with Y47L, A61P, N62D
# VL: B2 VL
# notes: Humanized IgG2 (V234A, G237A)/κ; also called No. 11
# B11: HK3L2 (antibody, human IgG2, kappa, V domains shown)
# VH: B1 VH with Y47L, S49A, A61P, N62D, R87K
# VL: B2 VL with Y87F
# notes: Humanized IgG2 (V234A, G237A)/κ; also called No. 17
# B12: HA2L1 (antibody, human IgG2, kappa, V domains shown)
# VH: B1 VH with Y47L
# VL: B2 VL
# notes: Humanized IgG2 (V234A, G237A)/κ; also called No. 26
# B13: HA2L2 (antibody, human IgG2, kappa, V domains shown)
# VH: B1 VH with Y47L
# VL: B2 VL with Y87F
# notes: Humanized IgG2 (V234A, G237A)/κ; also called No. 27
# B14: HA2L4(Lys-) (antibody, human IgG2, kappa)
# heavy: B6 heavy
# light: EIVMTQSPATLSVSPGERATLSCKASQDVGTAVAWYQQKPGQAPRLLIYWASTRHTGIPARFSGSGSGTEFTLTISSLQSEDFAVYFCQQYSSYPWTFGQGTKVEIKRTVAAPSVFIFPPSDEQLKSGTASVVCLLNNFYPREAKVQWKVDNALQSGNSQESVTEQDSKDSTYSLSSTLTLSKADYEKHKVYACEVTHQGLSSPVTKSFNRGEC
# notes: Humanized IgG2 (V234A, G237A)/κ; also called No. 32
# B15: HK2L5(Lys-) (antibody, human IgG2, kappa)
# heavy: B6 heavy with A61P, N62D
# light: B6 light
# notes: Humanized IgG2 (V234A, G237A)/κ; also called No. 36
# B16: HA1L2 (antibody, human IgG2, kappa, V domains shown)
# VH: B1 VH
# VL: B2 VL with Y87F
# notes: Humanized IgG2 (V234A, G237A)/κ; also called No. 22
# B17: HA1L5 (antibody, human IgG2, kappa, V domains shown)
# VH: B1 VH
# VL: B2 VL with V43S, Y87F
# notes: Humanized IgG2 (V234A, G237A)/κ; also called No. 25
# B18: HK1L4 (antibody, human IgG2, kappa, V domains shown)
# VH: B1 VH with A61P, N62D
# VL: B1 VL with Y87F
# notes: Humanized IgG2 (V234A, G237A)/κ; also called No. 9
# Target: T1, Human Notch4-NRR domain Fc fusion …
# Assay: SPR (Biacore) as for Table 30; Notch4-NRR-Fc captured, antibody injected; averaged, N=1
# Experimental: (§1) Kinetic analysis of further anti-Notch4 inhibitory humanized antibodies was carried out as follows. Human Notch4-NRR domain Fc fusion proteins were expressed with a CHO cell line. The antigen in the culture supernatant was captured by the anti-human Notch4 antibody fixed on a CM5 sensor chip that recognizes different epitopes of human Notch4. The humanized anti-human Notch4 antibody was then injected onto the sensor chip at various concentrations. The interaction and disassociation constants thereof were calculated according to manufacturer's instructions.
Kd,koff,kon,Binder
14.7 nM,0.524 s⁻¹,3.57e+07 M⁻¹ s⁻¹,B1
453 nM,0.0279 s⁻¹,61500 M⁻¹ s⁻¹,B2
9.54 nM,0.113 s⁻¹,1.18e+07 M⁻¹ s⁻¹,B3

# Target: T1, Human Notch4-NRR domain Fc fusion …
# Assay: SPR (Biacore) as for Table 30; Notch4-NRR-Fc captured, antibody injected; averaged, N=3
# Experimental: as §1
Kd,koff,kon,Binder
0.838 nM,0.00151 s⁻¹,1.83e+06 M⁻¹ s⁻¹,B4
0.766 nM,0.00114 s⁻¹,1.51e+06 M⁻¹ s⁻¹,B5
0.776 nM,0.0015 s⁻¹,2.01e+06 M⁻¹ s⁻¹,B6
1.78 nM,0.00489 s⁻¹,2.72e+06 M⁻¹ s⁻¹,B7

# Target: T1, Human Notch4-NRR domain Fc fusion …
# Assay: SPR (Biacore) as for Table 30; Notch4-NRR-Fc captured, antibody injected; averaged, N=4
# Experimental: as §1
Kd,koff,kon,Binder
1.38 nM,0.00157 s⁻¹,1.23e+06 M⁻¹ s⁻¹,B8
1.76 nM,0.00133 s⁻¹,783000 M⁻¹ s⁻¹,B9
1.84 nM,0.0016 s⁻¹,875000 M⁻¹ s⁻¹,B10
1.29 nM,0.00145 s⁻¹,1.13e+06 M⁻¹ s⁻¹,B11
1.76 nM,0.00166 s⁻¹,949000 M⁻¹ s⁻¹,B12
1.41 nM,0.00222 s⁻¹,1.63e+06 M⁻¹ s⁻¹,B13

# Target: T1, Human Notch4-NRR domain Fc fusion …
# Assay: SPR (Biacore) as for Table 30; Notch4-NRR-Fc captured, antibody injected; averaged, N=5
# Experimental: as §1
Kd,koff,kon,Binder
0.83 nM,0.00162 s⁻¹,2.43e+06 M⁻¹ s⁻¹,B14
0.617 nM,0.00113 s⁻¹,1.93e+06 M⁻¹ s⁻¹,B15

# Target: T1, Human Notch4-NRR domain Fc fusion …
# Assay: SPR (Biacore) as for Table 30; Notch4-NRR-Fc captured, antibody injected; averaged, N=2
# Experimental: as §1
Kd,koff,kon,Binder
18.6 nM,0.0122 s⁻¹,649000 M⁻¹ s⁻¹,B16
7.2 nM,0.0452 s⁻¹,6.36e+06 M⁻¹ s⁻¹,B17
4.34 nM,0.0118 s⁻¹,2.78e+06 M⁻¹ s⁻¹,B18

# From patent US20170096493A1 (EISAI R AND D MANAGEMENT, published 2017)
